Experimental data as given in article PMC9513282.
HiLyteFluor 488 = N-terminal fluorophore; QXL 520 = dark quencher

Tests used:
[1] = molecular target: AMUC_1438 CAT construct (residues 41-427) (Akkermansia muciniphila) (UniProt B2UKY7)
[2] = molecular target: AMUC_1438 FL construct (Akkermansia muciniphila) (UniProt B2UKY7)

KM of hydrolysis of the IgA1FRET O-glycopeptide (FRET dequenching, steady-state kinetics, Michaelis-Menten fit; 1 μM enzyme, 0 to 1000 μM substrate, 20 mM Tris-HCl pH 7.0, 100 μM zinc chloride) [1]: 300 μM | KM of hydrolysis of the IgA1FRET O-glycopeptide (FRET dequenching, steady-state kinetics, Michaelis-Menten fit; 1 μM enzyme, 0 to 1000 μM substrate, 20 mM Tris-HCl pH 7.0, 100 μM zinc chloride) [2]: 122 μM
Binder: {HiLyteFluor 488}-TPSPSTPPTK-{QXL 520} (not fully specified (residue 5); printed as TPSP**S**TPPTK) [IgA1FRET, custom FRET O-glycopeptide substrate based on the IgA1 hinge region]
